Assay results as given in the supplement of paper PMC10126150.
± gives the standard deviation of the averaged measurements.

test system: ATP; assay: switch fluorescence ratio, 500 uM ATP over buffer (Cy3 cluster intensity, sum of 5 cycles each) (fold (ratio)); higher = stronger signal-on switching upon ATP binding; sequences stand for … in TCGTCGGCAGCGTCAGATGTGTATAAGAGACAGTTTTTTTTTTTTTTTTTTTTTTTTT…TC; settings: aptamer strand: ATP DNA aptamer (quencher-CACCTGGGGGAGTATTGCGGAGGAAGG + anchor), 100 nM annealed; ATP concentration: 500 uM
Summary of the method: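 Per cluster, summed Cy3 intensity from the target cycles was divided by that from the buffer cycles to give the fluorescence ratio, then averaged per switch-domain sequence. Clusters outside 100-1000 RFU were excluded. The Cy3-labelled switching-strand clusters, on a modified Illumina MiSeq flow-cell, were annealed to 100 nM quencher-labelled ATP aptamer and imaged in selection buffer, then after 15 min with 500 uM ATP at 22 °C, for five cycles with NaOH stripping and re-annealing between them.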
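Further: ATP exposure 15 min at 22 °C before imaging.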

In order of rising switch fluorescence ratio:
1. GGGTACGAGT  0.9314 ± 0.0031
2. AATTTAGGTC  0.934 ± 0.028
3. GAAGATGTAG  0.9558 ± 0.0033
4. TTACTATTTG  0.961 ± 0.052
5. GGGCGCGTTT  0.9623 ± 0.0072
6. CGGAGGGGCG  0.963 ± 0.06
7. GTAGTCTAGA  0.965 ± 0.024
8. GGACTCTGGG  0.966 ± 0.058
9. GGCAGATGAC  0.9674 ± 0.0031
10. GCTTGGGGCA  0.967 ± 0.024
11. GTGGGATAAA  0.969 ± 0.011
12. AACTTGGCTT  0.969 ± 0.035
13. AAGAATTGCG  0.97 ± 0.033
14. GCAGGGTTCT  0.9721 ± 0.0021
15. GGCGAAGGCC  0.973 ± 0.02
16. GGCTTGGAAA  0.973 ± 0.011
17. GATGTGTGTT  0.9735 ± 0.0089
18. ACCGCGGTCG  0.974 ± 0.049
19. GGGGCCAGCT  0.974 ± 0.043
20. TCACGTGGCT  0.975 ± 0.015
21. GGTGGAAGGG  0.975 ± 0.03
22. CATGGTAGGA  0.975 ± 0.026
23. GTTGAAAGTA  0.977 ± 0.039
24. GGCATCGGTT  0.977 ± 0.027
25. TCCTTTACTG  0.9779 ± 0.0072
26. TGGGAAGTTT  0.978 ± 0.013
27. GTGTTGGACC  0.9782 ± 0.00099
28. GGGGAAGCCA  0.979 ± 0.024
29. ACAGCTGGGT  0.98 ± 0.015
30. ATGTGCCTGT  0.9799 ± 0.0065
31. TATAGTCGGG  0.98 ± 0.025
32. CCAGTCAACG  0.9802 ± 0.0085
33. CATATTATGG  0.981 ± 0.036
34. TGCGCTTCTA  0.98114 ± 0.00055
35. GGGATCGGTT  0.982 ± 0.034
36. CTAGTCTTTT  0.982 ± 0.031
37. CGTATATTGT  0.983 ± 0.061
38. CTACTGAAGG  0.983 ± 0.014
39. GATGAGGCGG  0.9832 ± 0.0015
40. GACTAGTTGG  0.983 ± 0.025
41. AGTTTGGGTC  0.984 ± 0.057
42. GGGACGATTG  0.985 ± 0.059
43. TGGGGTCTCT  0.985 ± 0.042
44. GCAGTATGGT  0.985 ± 0.016
45. TTTTTAGAAG  0.985 ± 0.01
46. TTTGCCAGTT  0.9847 ± 0.0019
47. GCGCTTTTGG  0.986 ± 0.048
48. TGTTTAAAAA  0.987 ± 0.025
49. TGATGAAAGG  0.987 ± 0.031
50. GGGCGGGTGT  0.987 ± 0.059
51. TGAGGTGTAT  0.98719 ± 0.00023
52. TTCTGGTTGT  0.987 ± 0.046
53. AGGGATTTGG  0.987 ± 0.014
54. GAAAGAGAGT  0.987 ± 0.023
55. GGATTTGGGG  0.9878 ± 0.0073
56. TGCCGGGTCT  0.988 ± 0.04
57. AGGATAAAGT  0.9875 ± 0.0077
58. TCAGTCATTA  0.989 ± 0.016
59. AGTATGGGGA  0.989 ± 0.016
60. CATGGAATTG  0.989 ± 0.032
61. GGGGTCTGAG  0.989 ± 0.019
62. TCAAGAGTTA  0.99 ± 0.035
63. AATCTGCCTG  0.99 ± 0.011
64. AGATGGATAA  0.99 ± 0.015
65. ACTAGGATGG  0.99 ± 0.026
66. GGGATATGAA  0.992 ± 0.018
67. GTTGTTGAAT  0.992 ± 0.026
68. TTTGGGGTCG  0.992 ± 0.034
69. AATGATTGTT  0.992 ± 0.03
70. GGGGATAAGC  0.992 ± 0.048
71. CCTGAATTAT  0.9941 ± 0.0012
72. CGACGTGCGG  0.9944 ± 0.0062
73. TTGTTGGGG  0.994 ± 0.03
74. TATACTGGGA  0.995 ± 0.012
75. ATGGTTAAAG  0.996 ± 0.026
76. GTATCTAGTT  0.996 ± 0.024
77. TTCAACTGGT  0.996 ± 0.022
78. ATGCCGGTGT  0.996 ± 0.057
79. TAGGCCAGTT  0.996 ± 0.011
80. GGGAAGAAGC  0.997 ± 0.054
81. AGGGGTCAAT  0.997 ± 0.0012
82. AATGTTTCTG  0.998 ± 0.038
83. TCAGTCTTTT  0.998 ± 0.016
84. TTTGGCTGTT  0.998 ± 0.029
85. GGGATTTTGA  0.999 ± 0.017
86. GCTGAAAGGA  0.999 ± 0.061
87. ATGAGTTGGG  0.999 ± 0.024
88. TTTAAGTATT  0.999 ± 0.02
89. GGGGTTCGTC  1 ± 0.044
90. TAATGGTGTG  1 ± 0.022
91. GCTCGTAGTG  1 ± 0.047
92. TCAAGAAGGT  1 ± 0.018
93. GAATTAAGCT  1 ± 0.015
94. CACTAATTAA  1.004 ± 0.009
95. GTGGGTTCGG  1 ± 0.031
96. TGGAGGTCTA  1 ± 0.018
97. TAGTAAAGAT  1 ± 0.017
98. TTGTTGGGGA  1 ± 0.019
99. GTTGACAGTG  1 ± 0.062
100. TGAGGGGTCA  1.002 ± 0.0076
101. CGGGGAAGGT  1 ± 0.031
102. TGATCAGATC  1 ± 0.026
103. TAATAATATT  1 ± 0.018
104. GCTTTAATTG  1.004 ± 0.0097
105. CGTGGGGGCT  1 ± 0.019
106. AGTGTCGTGC  1 ± 0.025
107. CAGTACGGTT  1 ± 0.037
108. ACGGGGTAAA  1.004 ± 0.009
109. TATTATTGGA  1 ± 0.042
110. CAGTATTAGA  1.003 ± 0.0037
111. TGGGGGGCGT  1.01 ± 0.043
112. TTTAGAACGA  1.01 ± 0.025
113. AAGTGCATGC  1.01 ± 0.11
114. CTCGGCTGGT  1.01 ± 0.019
115. ATTAAAGTAG  1.006 ± 0.0067
116. TTCGGGGTCT  1.014 ± 0.0098
117. GGTGTTCTGA  1.01 ± 0.023
118. TTCAAGTGTA  1.01 ± 0.022
119. AATTGGATCT  1.01 ± 0.027
120. GGTGGGGGGA  1.01 ± 0.063
121. CCTTAATTTG  1.007 ± 0.0089
122. AGTTGTACAA  1.012 ± 0.01
123. TTGCGTGCTT  1.01 ± 0.027
124. GGATTAGGGA  1.01 ± 0.03
125. CAAGTGTTGG  1.01 ± 0.05
126. GAGCGCTTGG  1.01 ± 0.037
127. TATGTCGCCA  1.01 ± 0.024
128. CAAAGGAGGC  1.01 ± 0.048
129. GGAGCCTGGT  1.01 ± 0.022
130. CGCGAAGGGT  1.01 ± 0.026
131. CGGGGGTCCA  1.01 ± 0.055
132. TAAATAATTT  1.01 ± 0.028
133. CACTCCTGTG  1.01 ± 0.04
134. GGGATGTTGG  1.006 ± 0.0071
135. TGATATTTGT  1.01 ± 0.027
136. ACTATTGCGG  1.01 ± 0.025
137. ATCTCGGTTG  1.019 ± 0.0085
138. ATAATAGTTG  1.02 ± 0.018
139. CGAGTATTTT  1.024 ± 0.0022
140. TTGAGAAAGG  1.02 ± 0.025
141. TTAAAAGCGT  1.02 ± 0.013
142. TGGAGGTTAG  1.02 ± 0.034
143. TTGTTCCGAT  1.02 ± 0.032
144. TGAACGACGG  1.02 ± 0.073
145. TCGAAATTCG  1.02 ± 0.019
146. GGTAACAGGG  1.02 ± 0.032
147. AGGAGATGGG  1.02 ± 0.034
148. TGCAATTGTA  1.0195 ± 0.00099
149. GGGTTCCATT  1.023 ± 0.0075
150. CGCATCGCGT  1.02 ± 0.015
151. CTCAGTTTCT  1.02 ± 0.03
152. ATCAAGGACG  1.02 ± 0.05
153. TGCTCCGGAG  1.018 ± 0.006
154. TTTAAGTCGA  1.02 ± 0.04
155. GAAATTAAGT  1.02 ± 0.045
156. TTGAGGACAG  1.02 ± 0.025
157. TGGGGCCGAT  1.02 ± 0.021
158. CGGGGGCAGG  1.03 ± 0.07
159. ATGCTATTGT  1.03 ± 0.046
160. CTCTCGGCCG  1.03 ± 0.12
161. TATTGAGACC  1.03 ± 0.036
162. TTTGCATCTA  1.0306 ± 0.00072
163. GATTATTCTT  1.03 ± 0.035
164. AAAAGGGCGC  1.03 ± 0.045
165. CGGTCACTGT  1.03 ± 0.038
166. TCTGTGTATT  1.03 ± 0.037
167. GATGAGCCCT  1.03 ± 0.015
168. TAGGCTTGAA  1.03 ± 0.028
169. GTAGTTTTGC  1.0341 ± 0.00013
170. AAAAAAGTGC  1.04 ± 0.051
171. GCGTTGTGGA  1.04 ± 0.02
172. TAGAAACCCG  1.04 ± 0.024
173. AATTTAATGG  1.04 ± 0.053
174. ACTATGAAAA  1.037 ± 0.0011
175. AATAAAATCG  1.04 ± 0.01
176. CACTATAATG  1.05 ± 0.042
177. CGGTGTTGGC  1.05 ± 0.081
178. GAAAGAAGTC  1.05 ± 0.02
179. ATAATGGGTT  1.05 ± 0.058
180. GGACGATTTG  1.05 ± 0.054
181. AATGAAGTCC  1.054 ± 0.0038
182. TCTGAAGATC  1.06 ± 0.065
183. GGGTCCGCTG  1.06 ± 0.07
184. TACGAGGGTG  1.06 ± 0.034
185. TTCGTTAAGC  1.07 ± 0.1
186. GCTACCATAT  1.07 ± 0.015
187. TACACTTCTC  1.08 ± 0.025
188. GCCGAGGTGA  1.09 ± 0.13
189. GGGAGGTTGC  1.09 ± 0.23
190. TATCTGTATA  1.11 ± 0.17
191. AAAGAGCAAG  1.11 ± 0.034
192. ATGGGAACCT  1.12 ± 0.18
193. AACTTACTTT  1.13 ± 0.021
194. GAAGGCAGTC  1.13 ± 0.04
195. TCCAGTAATA  1.17 ± 0.19
196. AGAAAAATTT  1.19 ± 0.29
197. TATACAGGGG  1.2 ± 0.024
198. AATACGATGC  1.2 ± 0.091
199. TATGAAGGGG  1.22 ± 0.34
200. TGAAGTAATC  1.42 ± 0.43
